Reference: patent US12043671B2, “Antibodies targeting an amphiregulin-derived cell surface neo-epitope” (Gundersen Lutheran Medical Foundation, Inc., priority 2021, dated 2024)

What was measured:
[1] = target: T1, peptide representing the neo-epitope of the ADAM17-cleavage product of human AREG (Homo sapiens, UniProt P15514); test: ELISA of rabbit IgG candidates against peptides representing cleaved and full length AREG; type: binding
T1 construct: host or cells: synthetic peptide
Excerpt: FIGS. 1A-1C. Isolation of antibodies that selectively recognize a peptide representing cleaved AREG. FIG. 1A: Schematic representation of the AREG cleavage and EGFR activation process, one consequence of which is the internalization of the small transmembrane fragment that remains cell-associated after TACE/ADAM17-mediated cleavage. FIG. 1B: Schematic representation of phage panning strategy using a peptide representing the cleaved AREG neo-epitope adhered to the well and a peptide representing the non-cleaved AREG region in the liquid phase.
Rabbit monoclonal IgG antibodies specific to cleaved-AREG were identified in contracted screening (Oak Biosciences Inc., Sunnyvale, CA, USA) using a recombinant Rabbit naïve phage display library (scFv format, VK-linker-VH) screening platform after four rounds of panning and ELISA validation. For panning, phage was selected against a peptide modeling the ADAM17-cleaved cell-associated epitope of AREG,^12 represented by the N-terminal region of THSMIDSSLSKI (SEQ ID NO: 2), and counter-selected against a peptide spanning this region (SMKTHSMIDSSLSKIAC; SEQ ID NO: 9), representing uncleaved AREG. […] GMF-1A3, referred to hereafter as simply “1A3”, was the antibody chosen for further characterization in this Example.

cleaved-AREG peptide = target: T2, cleaved-AREG peptide (Homo sapiens, UniProt P15514); test: ELISA binding of 1A3 and 1A3-VC-PAB-MMAE to cleaved-AREG peptide; details: 0.001-1 μg/mL
T2 construct: host or cells: synthetic peptide
Procedure: Maxisorp flat bottom 96-well plates (Thermo Fisher Scientific) were coated with 5 μg/mL cleaved-AREG peptide at 4° C. overnight. After washing thrice with PBST (PBS with 0.05% Tween20) and blocking for 2 h at RT with 5% non-fat dry milk in PBST, various concentrations of 1A3 and 1A3-VC-PAB-MMAE (0.001, 0.01, 0.1, 1 μg/mL) were added to the wells and incubated for 2 h at RT. The wells were washed four times with PBST and were incubated at RT with Goat anti-rabbit IgG (H+L) Cross-adsorbed-HRP conjugate secondary Ab (ThermoFisher G-21234) for 1 h. One-Step™ Turbo™ B-ELISA Substrate Solution (Thermo Fisher Scientific) was added to the wells for color development, incubated for 15 min and the reaction was stopped by adding 2 M H2SO4.

MCF7 cells = test: Internalization and intracellular localization of 1A3-pHrodo, live-cell imaging; type: cell-based, human; details: time course to 2.5 h
Procedure: In order to study internalization, 1A3 was conjugated with pHrodo iFL Red dye using pHrodo iFL Red Microscale Protein Labeling Kit (P36014, Thermo Fisher Scientific). MCF7 cells were seeded in 12 mm Nunc Glass Bottom Dish, at a density of 1 ×10^5 cells/dish. After allowing the cells to attach overnight, the cells were incubated for 60 min with […] Hoechst dye for nuclei staining and LysoTracker® Green DND-26 (Thermo Fisher Scientific) for lysosomal labeling. The cells were then incubated with 1A3-pHrodo (2 μg/mL) for 20 min at 37° C. After washing the wells with PBS, the cells were supplemented with 1× live-cell imaging solution (Molecular probes, Thermo Fisher Scientific). Fluorescence images were acquired at 30 min intervals for 2.5 h with the Olympus 1×71 inverted fluorescence microscope (Olympus, Shinjuku, Tokyo, Japan). TAPI-2 (20 μM)—pre-treatment was performed overnight, with DMSO serving as a control.

MCF-7 cells = test: Tubulin staining (microtubule integrity); type: cell-based, human; details: 48 h treatment
Procedure: FIGS. 4A-4E. In vitro 1A3-MMAE cytotoxicity in MCF-7 (FIG. 4A) and MCF-7F (FIG. 4B) cells measured by MTT assay after treatment with 1A3-MMAE, 1A3 or MMAE. FIG. 4C: Clonogenic growth of MCF-7 or MCF-7F cells after exposure to 1A3-MMAE and replating. FIG. 4D: The quantification of clonogenic growth assays in FIG. 4C. (FIG. 4E). Tubulin staining of MCF-7 cells after 48 h treatment with MMAE, 1A3, 1A3-MMAE (40× magnification).

MCF7 xenografts = test: Orthotopic MCF7 breast cancer xenograft in NSG mice; type: in vivo, mouse
Excerpt: (§1) In Vivo Antitumor Activity Studies: The animal experiments were approved by the Institutional Animal Care and Use Committee of University of Wisconsin La Crosse (La Crosse, Wisconsin, USA). Four-week-old female NOD.Cg-Prkdc^scid II2rg^tm1Wjl/SzJ mice (NSG; The Jackson Laboratory) were acclimated for 1 week before the experiments. For MCF7 breast cancer xenograft model, the mice were implanted subcutaneously with 0.72-mg 17β-estradiol 90-day release tablets (Innovative Research of America) 3 days prior to cell injection. […] Firefly luciferase expressing MCF7 and MCF7-F cells (2×10^6 cells in a 1:1 mixture of serum-free DMEM and Matrigel) were injected orthotopically into the fourth inguinal mammary fat pad of each mouse. Once the tumors were well established, each cell line cohort was divided into three groups (n=5). Mean tumor volume at the start of treatment was 111 mm^3 for the MCF7 cohorts and 119 mm^3 for the MCF7-F cohorts. The mice were treated by intraperitoneal injection every 4 days for a total of six doses with unconjugated or MMAE conjugated anti-cleaved-AREG 1A3 antibody (5 mg/kg), or vehicle control (PBS). Tumor volumes were calculated from caliper data by using the formula: Volume (mm^3)=(Length×Width^2)/2. Mice were imaged weekly with the in vivo FX PRO imaging system (Carestream Molecular Imaging, Woodbridge, CA, USA) after injecting luciferin (150 mg/kg body weight). Tumor volume and body weight were monitored once a week. Statistical Analysis:
(§2) To test in vivo efficacy of 1A3-MMAE, human breast cancer cell lines expressing luciferase were injected orthotopically into NSG mice (one tumor in each inguinal mammary gland). Once the average tumor size reached approximately 100-125 mm^3, mice were randomized to one of three treatment groups: PBS, 1A3 (5 mg/kg) or 1A3-MMAE (5 mg/kg). Mice received intraperitoneal injections every 4 days for six total injections and were monitored for tumor progression or regression. Similar experiments were performed with MCF7 (FIGS. 5A, 5B, and 5C, left panels) and MCF7-F (FIGS. 5A, 5B, and 5C, right panels) xenografts.

MCF7-F xenografts = test: Orthotopic MCF7-F endocrine-resistant xenograft in NSG mice; type: in vivo, mouse
Excerpt: as §1, §2

binding ratio of cleaved AREG to intact AREG as determined by ELISA ([1]; compared among the three antibodies): highest binding ratio
binding to cleaved AREG peptide, unconjugated vs MMAE-conjugated (cleaved-AREG peptide): no substantial difference in binding
B1: 1A3: Rabbit monoclonal IgG specific to cleaved AREG; VH SEQ ID NO: 3, VL SEQ ID NO: 4 (antibody, V domains shown)
VH: QSVKESEGRLVTPGTPLRLTCTVAGYSLSRYHMCWVRQAPGKGLEWIGMIGGSGRTDYASWAKGRFTISKTSTTVDLKITSPTTEDTATYFCSTVYTDSDGDFWGPGTLVTVSS
VL: AELDMTQTPSSKSVPVGGTVTINCQASESVYSNDRLAWFQQKPGQPPKLLIYYASTLASGVPSRFKGSGSGTQFTLTISDLECADAATYYCQSCYDMSSYGVAFGGGTELEIL
modifications: 1A3 antibody, Heavy chain; 1A3 antibody, Light chain
selectivity for cleaved AREG by ELISA ([1]; IgG format, cleaved vs uncleaved AREG peptide): selectivity for cleaved AREG was confirmed
trafficking after internalization (colocalization of pHrodo and Lysotracker signals) (MCF7 cells): trafficked to the lysosome after internalization
tubulin disruption (microtubule integrity) (MCF-7 cells): did not
longitudinal luciferase imaging of xenografts (MCF7 xenografts; MCF7, 5 mg/kg): exhibited tumor growth
tumor volume response by caliper measurements (MCF7 xenografts; MCF7, 5 mg/kg i.p. every 4 days, six doses): continued, sometimes rapid increases in tumor volume
longitudinal luciferase imaging of xenografts (MCF7-F xenografts; 5 mg/kg): exhibited tumor growth
tumor volume response by caliper measurements (MCF7-F xenografts; 5 mg/kg i.p. every 4 days, six doses): continued, sometimes rapid increases in tumor volume
